# Molecular target: HLA-A*02:01
# Assay: IEDB peptide-MHC binding, purified MHC/competitive/radioactivity; ≥ and ≤ were set here for values at or beyond the usual limits of such assays
# Conditions: source organism: Homo sapiens
row,Sequence,IC50 [µM]
1,ALLAGLVSL,0.0763
2,FLPWHRLFL,0.112
3,FLPWHRLFLL,0.205
4,FLRNQPLTFA,0.139
5,HLAVIGALL,0.106
6,LLAGLVSLL,0.0952
7,RIWSWLLGA,0.1
8,RLLGSLNST,0.167
9,RLMKQDFSV,0.0463
10,SLHNLVHSFL,0.263
11,SVMDPLIYA,0.0833
12,VLTALLAGL,0.082
13,VVMGTLVAL,0.0667
14,YVITTQHWL,0.104

# Now those with a lower IC50, led by results:
row,IC50 [µM],Sequence
1,0.0179,AVIGALLAV
2,0.0385,FLCWGPFFL
3,0.0256,FLLRWEQEI
4,0.0039,NMVPFFPPV
5,0.0263,SLDDYNHLV
6,0.0278,VMGTLVALV
7,0.0321,WLLGAAMVGA
8,0.0156,YAIDLPVSV

# Reference: the Immune Epitope Database (IEDB)
